Laboratory results from patent publication US8889130B2, “Treatment of osteoarthritis and pain” (Abbvie Inc., priority 2011, dated 2014).

Legend:
Male SV129 mice = assay: Destabilization of medial meniscus (DMM) model of osteoarthritis, cartilage degeneration (Chambers scores); type: in vivo, mouse; details: Example 3.3.6 (FIG. 7); 8 weeks; mAbs 6 mg/kg alone or in combination
Description: (§1) Male SV129 mice weighing approximately 30 grams, housed 5/cage, were anesthetized on Day 0 with ketamine/xylazine cocktail, administered intraperitoneally (ip), and then the medial collateral ligament was exposed by blunt dissection, and transected to reflect the meniscus toward the femur. The joint space was closed with 8-0 vicryl suture. The skin was closed with wound glue. For sham surgeries, a vertical skin incision was made over the medial aspect of the knee and the joint capsule was opened. The capsule was closed with 8-0 vicryl suture and the skin was closed with wound glue. Groups of animals were then treated with intraperitoneal (ip) injections of antibody or vehicle according to the study design table below. Two sex-matched, age-matched, and strain-matched naïve mice were also included in the study. Animals were euthanized after 8 weeks of treatment, and knee joints were harvested in 10% neutral buffered formalin.
Formalin-fixed samples were decalcified, and specimens were sectioned in the frontal plane into 15 step sections each. Each section was approximately 6 μm thick, and step sections were separated by 70 μm. All slides were stained with toluidine blue (T. Blue). Slides were assessed according to the Chambers method (Chambers et al. (2001) Arthritis Rheum 44:1455-65) for cartilage degeneration (see below) by a board-certified veterinary pathologist. Each of the four cartilage surfaces, the medial femoral condyle (MFC), the medial tibial plateau (MTP), the lateral femoral condyle (LFC), and the lateral tibial plateau (LTP), was scored from 0-6 according to the scale in the table below.
as §1, with “8-0 vicryl suture, and the” for “8-0 vicryl suture and the”, “injections of anti-mIL-1α monoclonal antibody, anti-mIL-1β (alone or in combination), mIL-1α/βDVD-Ig binding protein, or vehicle” for “injections of antibody or vehicle”, “design table below (Table 24). Animals were” for “design table below. Two sex-matched, age-matched, and strain-matched naïve mice were also included in the study. Animals were”, “weeks of treatment and knee” for “weeks of treatment, and knee”
Male SV129 mice weighing approximately 30 grams had the medial collateral ligament exposed by blunt dissection, and transected to reflect the meniscus toward the femur. The joint space was closed with 8-0 vicryl suture. The skin was closed with wound glue. For sham surgeries, a vertical skin incision was made over the medial aspect of the knee and the joint capsule was opened. The capsule was closed with 8-0 vicryl suture, and the skin was closed with wound glue. Groups of animals were then treated per os (po) or via intraperitoneal (ip) injections of vehicle or treatments according to the study design table below. Three sex-matched, age-matched, and strain-matched naïve mice were also included in the study. Animals were euthanized after 4 weeks of treatment, and knee joints were harvested in 10% neutral buffered formalin.

male DBA-1 mice = assay: Collagen-induced arthritis mouse model (rheumatoid arthritis); type: in vivo; details: therapeutic mode; 1-3 mg/kg intraperitoneally every other day after disease onset
Description: The therapeutic effects of anti-IL-1α, anti-IL-1β, combined anti-IL-1α/anti-IL-1β, and murine IL-1α/β DVD4-Ig, were evaluated in a collagen-induced arthritis mouse model well known in the art. Briefly, male DBA-1 mice were immunized with bovine type II collagen in CFA at the base of the tail. The mice were boosted with Zymosan intraperitoneally (i.p) at day 21. After disease onset at day 24-27, mice were selected and divided into separate groups of 10 mice each. […] To neutralize IL-1, mice were injected every other day with 1-3 mg/kg of anti-IL-1α mAb, anti-IL-1βmAb, combination of anti-IL-1α and anti-IL-1β mAbs, or murine IL-1α/β DVD4-Ig intraperitoneally. Mice were carefully examined three times a week for the visual appearance of arthritis in peripheral joints, and scores for disease activity determined.

mice (female BALB/c) = assay: Mouse carrageenan-induced inflammatory pain model, thermal hyperalgesia (paw withdrawal latency); type: in vivo; details: Example 8; 48 and 96 hours; single mAb 900 μg; diclofenac 30 mg/kg
Description: To evaluate whether neutralization of IL-1α and IL-1β produces antinociceptive effects in inflammatory pain conditions, anti-IL-1α and anti-IL-1β mAbs were evaluated for the ability to reverse established pain in the mouse carrageenan paw model of nociceptive pain.
The efficacy of the anti-IL-1α and anti-IL-1β mAbs was evaluated when administered alone or in combination in the mouse carrageenan model (FIG. 15). At 30 hours after intraplantar carrageenan injection: 900 μg of either anti-IL-1α mAb, anti-IL-1β mAb, or their combination were administered in different groups of mice. Thermal hyperalgesia testing was performed 48 and 96 hours after carrageenan. […] The antinociceptive effect in 900 μg combination group was 53±7% at 48 hours, and 82±11% at 96 hours.
Different groups of animals were treated either with vehicle or a combination of anti-IL-1α and anti-IL-1β mAbs (100, 300, or 900 μg/mouse of each mAb) 30 hours after carrageenan injection. […] The antinociceptive effect in 900 μg treatment group was 70±9% at 48 hours, and 62±4% at 96 hours. Diclofenac (30 mg/kg), a non-steroidal, anti-inflammatory analgesic, was included as positive control in the study, and it increased the mean paw withdrawal latency of the injured paw to 7.01±0.58 s at 48 hours and 7.48±0.34 s at 96 hours when administered p.o. 60 minutes before testing (p<0.01 at both time points).

B1: 10G11: mouse anti-mouse IL-1β monoclonal antibody (clone 10G11) from IL-1α/β double KO mice (antibody, V domains shown)
VH: EVQLQQSGPELVKPGTSVKMSCKTSGYTFTSYVMHWVKQKPGQGLEWIGYIIPYNDNTKYNEKFKGKATLTSDKSSSTAYMELSSLTSEDSAVYYCARRNEYYGSSFFDYWGQGTTLTVSS
VL: DIQMTQSPASLSASVGETVTITCRGSGILHNYLVWYQQKQGKSPQLLVYSAKILADGVPSRFSGSGSGTQYSLKINSLQPEDFGSYYCQHFWSTPFTFGSGTKLEIKR
modifications: heavy chain variable domain of 10G11; light chain variable domain of 10G11
notes: mouse anti-mouse IL-1β monoclonal antibody (clone 10G11) from IL-1α/β double KO mice
Male SV129 mice
  mean sum Chambers scores and mean maximum Chambers scores (cartilage degeneration): not statistically significant
Male DBA-1 mice
  reduction in mean arthritis score compared to control group: 24%
Mice (female BALB/c)
  thermal hyperalgesia / antinociceptive effect: no significant antinociceptive effect
